# According to article PMC3930741:
# Molecular target: recombinant Tg-p43 (E. coli-derived) (Toxoplasma gondii)
# Test: cross-linking; purified E. coli-derived Tg-p43 at 1 mg/ml in PBS with 10% glycerol, 0.25% glutaraldehyde on ice, stopped with Tris-HCl pH 8; Coomassie-stained SDS-PAGE; beta-amylase and carbonic anhydrase for comparison
substance,measurement,value
recombinant Tg-p43 (E. coli-derived) (natural protein),stoichiometry N,2
